The target of assay [1] is T1, mouse FcγRII extracellular domain, C-terminal His tag (mouse, UniProt P08101 30-210).
T1 construct: also called mFcγRII; mFcgRII
T1 sequence: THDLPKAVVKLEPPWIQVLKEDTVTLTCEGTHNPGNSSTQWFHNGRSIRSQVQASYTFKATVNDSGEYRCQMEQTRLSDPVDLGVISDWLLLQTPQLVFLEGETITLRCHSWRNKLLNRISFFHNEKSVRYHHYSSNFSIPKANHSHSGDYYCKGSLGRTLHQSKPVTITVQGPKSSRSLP
In words: SPR (Biacore T200), antibody captured on Protein L, mFcγR analyte. As for the experimental part: (§1) Each altered antibody was analyzed for its interaction with each Fcγ receptor prepared above using Biacore T100 (GE Healthcare Japan Corp.), Biacore T200 (GE Healthcare Japan Corp.), Biacore A100, or Biacore 4000. The running buffer used was HBS-EP+ (GE Healthcare Japan Corp.). The assay temperature was set to 25° C. The sensor chips used were chips prepared by immobilizing Protein L (ACTIGEN or BioVision) onto Series S Sensor Chip CM5 (GE Healthcare Japan Corp.) or Series S Sensor Chip CM4 (GE Healthcare Japan Corp.) by the amine coupling method.
(§2) In order to calculate the KD value of each altered antibody for FcγR, kinetic analysis was conducted according to the following method: first, the antibody of interest was captured onto any of these chips and allowed to interact with mFcγR diluted with a running buffer. For the obtained sensorgram, the assay results were globally fit into the 1:1 Langmuir binding model using Biacore Evaluation Software to calculate an association rate constant ka (L/mol/s) and a dissociation rate constant kd (1/s). From these values, the dissociation constant KD (mol/L) was calculated.

Assay [2] has as its target T2, mouse FcγRIII extracellular domain, C-terminal His tag (mouse, UniProt P08508 31-215).
T2 construct: also called mFcγRIII; mFcgRIII
T2 chain: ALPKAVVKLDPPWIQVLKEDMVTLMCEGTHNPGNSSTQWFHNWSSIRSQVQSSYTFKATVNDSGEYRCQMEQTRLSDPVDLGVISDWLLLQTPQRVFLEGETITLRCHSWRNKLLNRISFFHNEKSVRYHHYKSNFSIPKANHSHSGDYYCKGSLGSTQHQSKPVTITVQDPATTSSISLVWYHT
The description is as above. Here is the method: as §1, §2

The Kd is a measure of binding affinity in units of concentration. A lower Kd goes with a tighter complex.

B1: H237-MB545/MRAL-k0 (antibody, mouse IgG1, kappa)
heavy: QVQLQESGPGLVKPSETLSLTCAVSGHSISHDHAWSWVRQPPGEGLEWIGFISYSGITNYNPSLQGRVTISRDNSKNTLYLQMNSLRAEDTAVYYCARSLARTTAMDYWGEGTLVTVSSAKTTPPSVYPLAPGSAAQTNSMVTLGCLVKGYFPEPVTVTWNSGSLSSGVHTFPAVLQSDLYTLSSSVTVPSSTWPSETVTCNVAHPASSTKVDKKIVPRDCGCKPCICEPNEVEMVFIFPPKPKDVLTITLTPKVTCVVVDISKDDPEVQFSWFVDDVEVHTAQTQPREEQFNLTFRSVSELPIMHQDWLNGKEFKCRVDSDAFPAPIEKTISKTKGRPKAPQVYTIPPPKEQMAKDKVSLTCMITDFFPEDITVEWQWNGQPAENYKNTQPIMDTDGSYFVYSKLNVQKSNWEAGNTFTCSVLHEGLHNHHTEKSLSHSPGK
light: not shown
notes: copies: 2 + 2
As for B1, in assay [1], the Kd is 1.29 nM and the “relative mFcγRII-binding activity (mIgG1 = 1)” value is 163 fold vs H237-mIgG1/MRAL-k0. In assay [2], binding was put at a Kd of 106 nM and the “relative mFcγRIII-binding activity (mIgG1 = 1)” value is 2.7 fold vs H237-mIgG1/MRAL-k0.

B2: H237-MB751/MRAL-k0 (antibody, mouse IgG1, kappa)
heavy: QVQLQESGPGLVKPSETLSLTCAVSGHSISHDHAWSWVRQPPGEGLEWIGFISYSGITNYNPSLQGRVTISRDNSKNTLYLQMNSLRAEDTAVYYCARSLARTTAMDYWGEGTLVTVSSAKTTPPSVYPLAPGSAAQTNSMVTLGCLVKGYFPEPVTVTWNSGSLSSGVHTFPAVLQSDLYTLSSSVTVPSSTWPSETVTCNVAHPASSTKVDKKIVPRDCGCKPCICEPNEVELVFIFPPKPKDVLTITLTPKVTCVVVDISKDDPEVQFSWFVDDVEVHTAQTQPREEQFNSTFRSVSELPIMHQDWLNGKEFKCRVNSAAFPAPIERTISKTKGRPKAPQVYTIPPPKEQMAKDKVSLTCMITDFFPEDITVEWQWNGQPAENYKNTQPIMDTDGSYFVYSKLNVQKSNWEAGNTFTCSVLHEGLHNHHTEKSLSHSPGK
light: not shown
notes: copies: 2 + 2
Consider B2, for which, in assay [1], the affinity, expressed as Kd, was 8.25 nM and the “relative mFcγRII-binding activity (mIgG1 = 1)” value is 25.4 fold vs H237-mIgG1/MRAL-k0. Also, in assay [2], binding was characterised by a dissociation constant (Kd) of 890 nM and the “relative mFcγRIII-binding activity (mIgG1 = 1)” value was 0.3 fold vs H237-mIgG1/MRAL-k0.

B3: H237-MB748/MRAL-k0 (antibody, mouse IgG1, kappa)
heavy: QVQLQESGPGLVKPSETLSLTCAVSGHSISHDHAWSWVRQPPGEGLEWIGFISYSGITNYNPSLQGRVTISRDNSKNTLYLQMNSLRAEDTAVYYCARSLARTTAMDYWGEGTLVTVSSAKTTPPSVYPLAPGSAAQTNSMVTLGCLVKGYFPEPVTVTWNSGSLSSGVHTFPAVLQSDLYTLSSSVTVPSSTWPSETVTCNVAHPASSTKVDKKIVPRDCGCKPCICEPNEVELVFIFPPKPKDVLTITLTPKVTCVVVDIAKDDPEVQFSWFVDDVEVHTAQTQPREEQFNSTFRSVSELPIMHQDWLNGKEFKCRVNSAAFPAPIEKTISKTKGRPKAPQVYTIPPPKEQMAKDKVSLTCMITDFFPEDITVEWQWNGQPAENYKNTQPIMDTDGSYFVYSKLNVQKSNWEAGNTFTCSVLHEGLHNHHTEKSLSHSPGK
light: not shown
notes: copies: 2 + 2
Regarding B3, in assay [1], the Kd came to 17.9 nM and the “relative mFcγRII-binding activity (mIgG1 = 1)” value was 11.7 fold vs H237-mIgG1/MRAL-k0. Besides, in assay [2], binding was characterised by a dissociation constant (Kd) of 2060 nM and the “relative mFcγRIII-binding activity (mIgG1 = 1)” value was 0.1 fold vs H237-mIgG1/MRAL-k0.

B4: H237-MB549/MRAL-k0 (antibody, mouse IgG1, kappa)
heavy: QVQLQESGPGLVKPSETLSLTCAVSGHSISHDHAWSWVRQPPGEGLEWIGFISYSGITNYNPSLQGRVTISRDNSKNTLYLQMNSLRAEDTAVYYCARSLARTTAMDYWGEGTLVTVSSAKTTPPSVYPLAPGSAAQTNSMVTLGCLVKGYFPEPVTVTWNSGSLSSGVHTFPAVLQSDLYTLSSSVTVPSSTWPSETVTCNVAHPASSTKVDKKIVPRDCGCKPCICEPNEVEMVFIFPPKPKDVLTITLTPKVTCVVVDISKDDPEVQFSWFVDDVEVHTAQTQPREEQFNLTFRSVSELPIMHQDWLNGKEFKCRVDSDAFPAPIERTISKTKGRPKAPQVYTIPPPKEQMAKDKVSLTCMITDFFPEDITVEWQWNGQPAENYKNTQPIMDTDGSYFVYSKLNVQKSNWEAGNTFTCSVLHEGLHNHHTEKSLSHSPGK
light: not shown
notes: copies: 2 + 2
As to B4, in assay [1], the Kd came out at 1 nM and the “relative mFcγRII-binding activity (mIgG1 = 1)” value is 210 fold vs H237-mIgG1/MRAL-k0. Besides, in assay [2], the equilibrium dissociation constant (Kd) amounted to 52.1 nM and the “relative mFcγRIII-binding activity (mIgG1 = 1)” value was 5.4 fold vs H237-mIgG1/MRAL-k0.

B5: H237-MB630/MRAL-k0 (antibody, mouse IgG1, kappa)
heavy: QVQLQESGPGLVKPSETLSLTCAVSGHSISHDHAWSWVRQPPGEGLEWIGFISYSGITNYNPSLQGRVTISRDNSKNTLYLQMNSLRAEDTAVYYCARSLARTTAMDYWGEGTLVTVSSAKTTPPSVYPLAPGSAAQTNSMVTLGCLVKGYFPEPVTVTWNSGSLSSGVHTFPAVLQSDLYTLSSSVTVPSSTWPSETVTCNVAHPASSTKVDKKIVPRDCGCKPCICEPNEVELVFIFPPKPKDVLTITLTPKVTCVVVDISKDDPEVQFSWFVDDVEVHTAQTQPREEQFNSTFRSVSELPIMHQDWLNGKEFKCRVNSAAFPAPIEKTISKTKGRPKAPQVYTIPPPKEQMAKDKVSLTCMITDFFPEDITVEWQWNGQPAENYKNTQPIMDTDGSYFVYSKLNVQKSNWEAGNTFTCSVLHEGLHNHHTEKSLSHSPGK
light: not shown
notes: copies: 2 + 2
Consider B5, for which, in assay [1], the Kd is 14.7 nM and the “relative mFcγRII-binding activity (mIgG1 = 1)” value is 14.3 fold vs H237-mIgG1/MRAL-k0. Moreover, in assay [2], the Kd was determined as 1120 nM and the “relative mFcγRIII-binding activity (mIgG1 = 1)” value is 0.3 fold vs H237-mIgG1/MRAL-k0.

B6: H237-MB548/MRAL-k0 (antibody, mouse IgG1, kappa)
heavy: QVQLQESGPGLVKPSETLSLTCAVSGHSISHDHAWSWVRQPPGEGLEWIGFISYSGITNYNPSLQGRVTISRDNSKNTLYLQMNSLRAEDTAVYYCARSLARTTAMDYWGEGTLVTVSSAKTTPPSVYPLAPGSAAQTNSMVTLGCLVKGYFPEPVTVTWNSGSLSSGVHTFPAVLQSDLYTLSSSVTVPSSTWPSETVTCNVAHPASSTKVDKKIVPRDCGCKPCICEPNEVEMVFIFPPKPKDVLTITLTPKVTCVVVDISKDDPEVQFSWFVDDVEVHTAQTQPREEQFNSTFRSVSELPIMHQDWLNGKEFKCRVDSDAFPAPIERTISKTKGRPKAPQVYTIPPPKEQMAKDKVSLTCMITDFFPEDITVEWQWNGQPAENYKNTQPIMDTDGSYFVYSKLNVQKSNWEAGNTFTCSVLHEGLHNHHTEKSLSHSPGK
light: not shown
notes: copies: 2 + 2
B6: in assay [1], the dissociation constant (Kd) came to 0.589 nM and the “relative mFcγRII-binding activity (mIgG1 = 1)” value is 357 fold vs H237-mIgG1/MRAL-k0. Besides, in assay [2], the Kd is 71.7 nM and the “relative mFcγRIII-binding activity (mIgG1 = 1)” value is 3.9 fold vs H237-mIgG1/MRAL-k0.

B7: H237-MB710/MRAL-k0 (antibody)
heavy: QVQLQESGPGLVKPSETLSLTCAVSGHSISHDHAWSWVRQPPGEGLEWIGFISYSGITNYNPSLQGRVTISRDNSKNTLYLQMNSLRAEDTAVYYCARSLARTTAMDYWGEGTLVTVSSAKTTPPSVYPLAPGSAAQTNSMVTLGCLVKGYFPEPVTVTWNSGSLSSGVHTFPAVLQSDLYTLSSSVTVPSSTWPSETVTCNVAHPASSTKVDKKIVPRDCGCKPCICEPAEVEQVFIFPPKPKDVLTITLTPKVTCVVVDISKDDPEVQFSWFVDDVEVHTAQTQPREEQFNSTFRSVSELPIMHQDWLNGKEFKCRVNSAAFPAPIEKTISKTKGRPKAPQVYTIPPPKEQMAKDKVSLTCMITDFFPEDITVEWQWNGQPAENYKNTQPIMDTDGSYFVYSKLNVQKSNWEAGNTFTCSVLHEGLHNHHTEKSLSHSPGK
light: not shown
notes: T0025 prints T230E/V231P/P232N/S238E/S239Q for MB710; EU numbering; copies: 2 + 2
With B7, in assay [1], the dissociation constant (Kd) worked out at 4.13 nM and the “relative mFcγRII-binding activity (mIgG1 = 1)” value is 50.8 fold vs H237-mIgG1/MRAL-k0. Further, in assay [2], the Kd is 232 nM and the “relative mFcγRIII-binding activity (mIgG1 = 1)” value is 1.2 fold vs H237-mIgG1/MRAL-k0.

B8: H237-MB749/MRAL-k0 (antibody, mouse IgG1, kappa)
heavy: QVQLQESGPGLVKPSETLSLTCAVSGHSISHDHAWSWVRQPPGEGLEWIGFISYSGITNYNPSLQGRVTISRDNSKNTLYLQMNSLRAEDTAVYYCARSLARTTAMDYWGEGTLVTVSSAKTTPPSVYPLAPGSAAQTNSMVTLGCLVKGYFPEPVTVTWNSGSLSSGVHTFPAVLQSDLYTLSSSVTVPSSTWPSETVTCNVAHPASSTKVDKKIVPRDCGCKPCICEPNEVELVFIFPPKPKDVLTITLTPKVTCVVVDISKDDPEVQFSWFVDDVEVHTAQTQPREELFNSTFRSVSELPIMHQDWLNGKEFKCRVNSAAFPAPIEKTISKTKGRPKAPQVYTIPPPKEQMAKDKVSLTCMITDFFPEDITVEWQWNGQPAENYKNTQPIMDTDGSYFVYSKLNVQKSNWEAGNTFTCSVLHEGLHNHHTEKSLSHSPGK
light: not shown
notes: copies: 2 + 2
Take B8: in assay [1], the Kd stood at 8.3 nM and the “relative mFcγRII-binding activity (mIgG1 = 1)” value was 25.3 fold vs H237-mIgG1/MRAL-k0. In assay [2], the equilibrium dissociation constant (Kd) was 740 nM and the “relative mFcγRIII-binding activity (mIgG1 = 1)” value was 0.4 fold vs H237-mIgG1/MRAL-k0.

B9: H237-MB547/MRAL-k0 (antibody, mouse IgG1, kappa)
heavy: QVQLQESGPGLVKPSETLSLTCAVSGHSISHDHAWSWVRQPPGEGLEWIGFISYSGITNYNPSLQGRVTISRDNSKNTLYLQMNSLRAEDTAVYYCARSLARTTAMDYWGEGTLVTVSSAKTTPPSVYPLAPGSAAQTNSMVTLGCLVKGYFPEPVTVTWNSGSLSSGVHTFPAVLQSDLYTLSSSVTVPSSTWPSETVTCNVAHPASSTKVDKKIVPRDCGCKPCICEPNEVEMVFIFPPKPKDVLTITLTPKVTCVVVDISKDDPEVQFSWFVDDVEVHTAQTQPREEQFNLTFRSVSELPIMHQDWLNGKEFKCRVNSDAFPAPIERTISKTKGRPKAPQVYTIPPPKEQMAKDKVSLTCMITDFFPEDITVEWQWNGQPAENYKNTQPIMDTDGSYFVYSKLNVQKSNWEAGNTFTCSVLHEGLHNHHTEKSLSHSPGK
light: not shown
notes: copies: 2 + 2
For B9, in assay [1], the Kd worked out at 1.23 nM and the “relative mFcγRII-binding activity (mIgG1 = 1)” value was 170 fold vs H237-mIgG1/MRAL-k0. Moreover, in assay [2], the Kd was 62.3 nM and the “relative mFcγRIII-binding activity (mIgG1 = 1)” value was 4.5 fold vs H237-mIgG1/MRAL-k0.

The values are drawn from US20150203577A1 (Chugai, published 2015).
